Assay [1] deals with T1, GPC3 peptide, amino acid position 1-30 (SEQ ID NO: 1) (human).
T1 construct: synthetic 30-residue peptide of GPC3
T1 peptide: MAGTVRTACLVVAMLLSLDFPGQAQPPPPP
Briefly: ELISA on immobilised peptide. As for the experimental part:
(§1) In order to identify more detailed epitopes for the antibodies, the amino acid sequence of GPC3 was divided into peptides of 30 residues containing 10-residue overlaps, and the corresponding peptides were synthesized (SEQ ID NOs: 1 to 29 in Table 2). Each peptide thus synthesized was dissolved at a concentration of 1 mg/mL in dimethyl sulfoxide and then diluted to 1 μg/mL with PBS. The diluted peptide solution was added at 70 μL/well to a 96-well plate and immobilized thereon at room temperature for 1 hour. After removal of unimmobilized peptides, 20% Blocking-one (Nacalai Tesque, Inc.) was added thereto as a blocking buffer solution at 200 μL/well, and the plate was blocked overnight. After removal of the blocking buffer solution, each well was washed with TBS-T three times, and each antibody diluted to 2 μg/mL with a blocking buffer was then added thereto at 70 μL/well. One hour later, the antibody was removed, and each well was washed three times by the addition of TBS-T at 200 μL/well. An HRP-bound anti-mouse antibody was added at 70 μL/well to each well and reacted therewith for 1 hour. After removal of the antibody, each well was washed with 200 μL/well of TBS-T three times, and a chromogenic reagent ABTS Peroxidase Substrate System (1 component, KPL, Kirkegaard & Perry Laboratories, Inc.) was then added thereto at 70 μL/well and reacted at room temperature for […] to develop color. The reaction was terminated by the addition of 1% SDS at 70 μL/well, and the absorbance at 405 nm was measured using a plate reader.
On the technique in general: In an ELISA, binding on a coated surface is turned into a signal by an enzyme label.

For assay [2], the target named is T2, GPC3 peptide, amino acid position 41-70 (SEQ ID NO: 3) (human).
T2 construct: synthetic 30-residue peptide of GPC3
T2 peptide: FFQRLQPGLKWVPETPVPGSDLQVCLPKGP
As to the kind of experiment: ELISA on immobilised peptide. As for the experimental part:
as §1

The target of assay [3] is T3, GPC3 peptide, amino acid position 81-110 (SEQ ID NO: 5) (human).
T3 construct: synthetic 30-residue peptide of GPC3
T3 peptide: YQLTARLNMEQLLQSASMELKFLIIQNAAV
Briefly: ELISA on immobilised peptide. As for the experimental part: as §1

The target of assay [4] is T4, GPC3 peptide, amino acid position 101-130 (SEQ ID NO: 6) (human).
T4 construct: synthetic 30-residue peptide of GPC3
T4 peptide: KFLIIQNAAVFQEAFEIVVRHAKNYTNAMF
As to the kind of experiment: ELISA on immobilised peptide. As for the experimental part: as §1

Assay [5] has as its target T5, GPC3 peptide, amino acid position 141-170 (SEQ ID NO: 8) (human).
T5 construct: synthetic 30-residue peptide of GPC3
T5 peptide: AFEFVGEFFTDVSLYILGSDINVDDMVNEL
Briefly: ELISA on immobilised peptide. As for the experimental part: as §1

The target of assay [6] is T6, GPC3 peptide, amino acid position 201-230 (SEQ ID NO: 11) (human).
T6 construct: synthetic 30-residue peptide of GPC3
T6 peptide: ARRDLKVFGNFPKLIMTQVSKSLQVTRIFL
As to the kind of experiment: ELISA on immobilised peptide. As for the experimental part:
as §1

For assay [7], the target named is T7, GPC3 peptide, amino acid position 221-250 (SEQ ID NO: 12) (human).
T7 construct: synthetic 30-residue peptide of GPC3
T7 peptide: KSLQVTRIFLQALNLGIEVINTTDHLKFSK
Briefly: ELISA on immobilised peptide. As for the experimental part:
as §1

Assay [8] has as its target T8, GPC3 peptide, amino acid position 241-270 (SEQ ID NO: 13) (human).
T8 construct: synthetic 30-residue peptide of GPC3
T8 peptide: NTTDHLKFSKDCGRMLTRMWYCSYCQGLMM
As to the kind of experiment: ELISA on immobilised peptide. As for the experimental part:
as §1

Assay [9] deals with T9, GPC3 peptide, amino acid position 261-290 (SEQ ID NO: 14) (human).
T9 construct: synthetic 30-residue peptide of GPC3
T9 peptide: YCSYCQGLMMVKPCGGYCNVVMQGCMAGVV
As to the kind of experiment: ELISA on immobilised peptide. As for the experimental part: as §1

For assay [10], the target named is T10, GPC3 peptide, amino acid position 281-310 (SEQ ID NO: 15) (human).
T10 construct: synthetic 30-residue peptide of GPC3
T10 peptide: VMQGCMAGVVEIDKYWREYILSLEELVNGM
Briefly: ELISA on immobilised peptide. As for the experimental part:
as §1

Assay [11] has as its target T11, GPC3 peptide, amino acid position 301-330 (SEQ ID NO: 16) (human).
T11 construct: synthetic 30-residue peptide of GPC3
T11 peptide: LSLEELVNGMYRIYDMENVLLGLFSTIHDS
Briefly: ELISA on immobilised peptide. As for the experimental part:
as §1

Assay [12] has as its target T12, GPC3 peptide, amino acid position 321-350 (SEQ ID NO: 17) (human).
T12 construct: synthetic 30-residue peptide of GPC3
T12 peptide: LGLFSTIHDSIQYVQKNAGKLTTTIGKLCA
As to the kind of experiment: ELISA on immobilised peptide. As for the experimental part: as §1

Assay [13] addresses T13, GPC3 peptide, amino acid position 341-370 (SEQ ID NO: 18) (human).
T13 construct: synthetic 30-residue peptide of GPC3
T13 peptide: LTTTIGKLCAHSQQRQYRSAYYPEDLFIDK
Briefly: ELISA on immobilised peptide. As for the experimental part:
as §1

The target of assay [14] is T14, GPC3 peptide, amino acid position 381-410 (SEQ ID NO: 20) (human).
T14 construct: synthetic 30-residue peptide of GPC3
T14 peptide: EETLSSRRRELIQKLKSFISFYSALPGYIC
As to the kind of experiment: ELISA on immobilised peptide. As for the experimental part: as §1

Assay [15] has as its target T15, GPC3 peptide, amino acid position 421-450 (SEQ ID NO: 22) (human).
T15 construct: synthetic 30-residue peptide of GPC3
T15 peptide: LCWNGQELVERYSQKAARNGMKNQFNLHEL
Briefly: ELISA on immobilised peptide. As for the experimental part:
as §1

In assay [16] the target is T16, GPC3 peptide, amino acid position 441-470 (SEQ ID NO: 23) (human).
T16 construct: synthetic 30-residue peptide of GPC3
T16 peptide: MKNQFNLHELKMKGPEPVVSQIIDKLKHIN
Briefly: ELISA on immobilised peptide. As for the experimental part: as §1

The target of assay [17] is T17, GPC3 peptide, amino acid position 461-490 (SEQ ID NO: 24) (human).
T17 construct: synthetic 30-residue peptide of GPC3
T17 peptide: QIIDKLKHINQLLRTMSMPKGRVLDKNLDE
Briefly: ELISA on immobilised peptide. As for the experimental part: as §1

For assay [18], the target named is T18, GPC3 peptide, amino acid position 481-510 (SEQ ID NO: 25) (human).
T18 construct: synthetic 30-residue peptide of GPC3
T18 peptide: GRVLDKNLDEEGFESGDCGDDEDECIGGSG
As to the kind of experiment: ELISA on immobilised peptide. As for the experimental part:
as §1

The target of assay [19] is T19, GPC3 peptide, amino acid position 541-570 (SEQ ID NO: 28) (human).
T19 construct: synthetic 30-residue peptide of GPC3
T19 peptide: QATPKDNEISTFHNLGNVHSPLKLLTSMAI
Briefly: ELISA on immobilised peptide. As for the experimental part:
as §1

The target in assay [20] is T20, GPC3 peptide, amino acid position 551-580 (SEQ ID NO: 29) (human).
T20 construct: synthetic 30-residue peptide of GPC3
T20 peptide: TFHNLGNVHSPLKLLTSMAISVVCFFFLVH
Briefly: ELISA on immobilised peptide. As for the experimental part: as §1

Assay [21] has as its target T21, AW2, C-terminally His-tagged recombinant product of positions 1 to 196 of GPC3 (human, UniProt P51654 25-196).
T21 construct: Expressed in CHO cells; cell pellets used in reducing Western blot; Construct is stated from position 1; also called AW2 (1-196); not shown: C-terminal His tag
Briefly: Western blot of CHO cell pellets, reducing. For orientation: A western blot detects proteins with antibodies after separation by electrophoresis.

The target of assay [22] is T22, AW3, C-terminally His-tagged recombinant product of positions 1 to 218 of GPC3 (human, UniProt P51654 25-218).
T22 construct: Expressed in CHO cells; cell pellets used in reducing Western blot; Construct is stated from position 1; not shown: C-terminal His tag
T22 sequence (P51654 25-218): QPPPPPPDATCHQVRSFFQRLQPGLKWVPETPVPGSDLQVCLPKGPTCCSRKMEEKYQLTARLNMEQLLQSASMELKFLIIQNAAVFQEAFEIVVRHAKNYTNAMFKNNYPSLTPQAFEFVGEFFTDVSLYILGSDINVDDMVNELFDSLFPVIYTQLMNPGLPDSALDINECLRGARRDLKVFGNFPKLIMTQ
Briefly: Western blot of CHO cell pellets, reducing.

T21 sequence (P51654 25-196): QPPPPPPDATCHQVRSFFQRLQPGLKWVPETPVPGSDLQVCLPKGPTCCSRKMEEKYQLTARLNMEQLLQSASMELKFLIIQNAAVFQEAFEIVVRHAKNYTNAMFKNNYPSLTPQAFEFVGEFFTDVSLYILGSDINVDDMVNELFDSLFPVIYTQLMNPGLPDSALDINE

B1: GT607 antibody (antibody, IgG1, V domains shown)
VH: EVQLVESGGDVVRPGGSLKLSCAASGFTFSSYGMSWVRQLPDKRLEWVASVGNGGSYRYYPENLKGRFTISRDNTKNTLYLQISGLKSEDTAIYYCARRGAFPYFDVWGAGTTVTVSS
VL: QIVLTQSPAIMSASPGEKVTLACSASSSVTYMHWYQQKSGTSPKRWIYETSKLASGVPPRFSGSGSGTSYSLTISTMEAEDAATYYCQQWSSNPLTFGAGTKLELKR
Consider B1, for which the binding result in assay [1], in assay [2], in assay [3], in assay [4], in assay [5] and in [6] was “no binding (tested: 2 µg/mL)” in each case. Besides, the binding result in assay [7], in [8], in [9], in [10], in assay [11] and in assay [12] was “no binding (tested: 2 µg/mL)” each time. The binding result in [13], in assay [14], in assay [15], in assay [16], in assay [17] and in [18] was “no binding (tested: 2 µg/mL)” each time. In addition, the binding result in [19] is “no binding (tested: 2 µg/mL)”; in assay [20], “no binding (tested: 2 µg/mL)”; in assay [21] it was “no binding”; in assay [22], “no binding”.

B2: GT165 antibody (antibody, IgG1, V domains shown)
VH: QVQLQQSGAELVGPGASVKISCKAFGYTFTNHHINWVKQRPGQGLDWIGYINPYNDYTNYNQKFKGKATLTVDKSSSTAYMELSSLTSEDSAVYYCARSDPAWFAYWGQGTLVTVSA
VL: DIQMTQSPSSLSASLGGKVTITCKASQDINKNIAWYQHKPGKGPRLLIWYTYTLQPGIPSRFSGSGSGRDYSFSISNLEPEDIATYYCLQYDNLPFTFGTGTKLEIKR
Consider B2, for which the binding result in assay [1], in assay [2], in [3], in assay [4], in assay [5] and in assay [6] was “no binding (tested: 2 µg/mL)” in each case. Besides, the binding result in assay [7], in [8], in [9], in [10], in [11] and in assay [12] was “no binding (tested: 2 µg/mL)” in each case. The binding result in [13], in assay [14], in assay [15], in [16], in [17] and in assay [18] was “no binding (tested: 2 µg/mL)” each time. For the same molecule, the binding result in assay [19] is “no binding (tested: 2 µg/mL)”; in assay [20] it was “no binding (tested: 2 µg/mL)”; in assay [21], “no binding”; in assay [22], “no binding”.

B3: GT114 antibody (antibody, IgG1, V domains shown)
VH: DVQLQESGPGLVKPSQSLSLTCTVTGYSITSDSAWNWIRQFPGNKLEWMAYIMYSGITSYNPSLKSRISITRDTAKNQFFLQLNSVTTEDSATYYCSRGYWYFDVWGAGTTVTVSS
VL: QIVLTQSPAIMSASLGEEITLTCSASSSVSYMHWYQQKSGTSPKLLIYSTSILASGVPSRFSGSGSGTFYSLTISSVEAEDAADYYCLQWITYRTFGGGTKLEIKR
For B3, the binding result in assay [1], in assay [2], in [3], in [4], in assay [5] and in [6] was “no binding (tested: 2 µg/mL)” each time. In addition, the binding result in [7], in [8], in assay [9], in [10], in assay [11] and in [12] was “no binding (tested: 2 µg/mL)” each time. Also, the binding result in assay [13], in assay [14], in assay [15], in [16], in [17] and in assay [18] was “no binding (tested: 2 µg/mL)” in each case. In addition, the binding result was “no binding (tested: 2 µg/mL)” in assay [19], “no binding (tested: 2 µg/mL)” in assay [20], “no binding” in [21] and “no binding” in [22].

The values are drawn from patent US20170010270A1 (Chugai, published 2017).
